Test results taken from patent US10919943B2, “Mutant proteins enabling agrochemical control of plant gene expression” (The Regents of the University of California, priority 2016, dated 2021).

tested on: HAB1; assay: Yeast two hybrid of pBD-PYR1 site saturation mutants with pACT-HAB1 on 10 μM ABA, β-galactosidase staining; assay type: cell-based, Arabidopsis; parameters: key: x: Mutations in PYR1 that disrupt ABA-induced binding to PYR1 to HAB1; conditions: S. cerevisiae Y190, 10 μM ABA; dead = lack of visible staining in comparison to wild type control
Method in brief: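 S. cerevisiae Y190 co-expressing GAL4-DNA-binding-domain–PYR1 mutants and GAL4-activation-domain–HAB1 were spotted on SD (-Leu, -Trp) agar with 10 μM (+)-ABA for 2 days at 30° C. Colonies were chloroform-lysed and stained for β-galactosidase. Mutants lacking visible staining relative to wild type were scored as non-binding.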

Row | Mutations in PYR1 that disrupt ABA-induced binding to PYR1 to HAB1 | Molecule
1 | x | P148S: PYR1 mutant (protein, UniProt O49686 1-191, looked up, variant P148S) Abscisic acid receptor PYR1: MPSELTPEERSELKNSIAEFHTYQLDPGSCSSLHAQRIHAPPELVWSIVRRFDKPQTYKHFIKSCSVEQNFEMRVGCTRDVIVISGLPANTSTERLDILDDERRVTGFSIIGGEHRLTNYKSVTTVHRFEKENRIWTVVLESYVVDMSEGNSEDDTRMFADTVVKLNLQKLATVAEAMARNSGDGSGSQVT
2 | x | P148I: PYR1 mutant (protein, UniProt O49686 1-191, looked up, variant P148I) Abscisic acid receptor PYR1: MPSELTPEERSELKNSIAEFHTYQLDPGSCSSLHAQRIHAPPELVWSIVRRFDKPQTYKHFIKSCSVEQNFEMRVGCTRDVIVISGLPANTSTERLDILDDERRVTGFSIIGGEHRLTNYKSVTTVHRFEKENRIWTVVLESYVVDMIEGNSEDDTRMFADTVVKLNLQKLATVAEAMARNSGDGSGSQVT
3 | x | P148E: PYR1 mutant (protein, UniProt O49686 1-191, looked up, variant P148E) Abscisic acid receptor PYR1: MPSELTPEERSELKNSIAEFHTYQLDPGSCSSLHAQRIHAPPELVWSIVRRFDKPQTYKHFIKSCSVEQNFEMRVGCTRDVIVISGLPANTSTERLDILDDERRVTGFSIIGGEHRLTNYKSVTTVHRFEKENRIWTVVLESYVVDMEEGNSEDDTRMFADTVVKLNLQKLATVAEAMARNSGDGSGSQVT
4 | x | P148F: PYR1 mutant (protein, UniProt O49686 1-191, looked up, variant P148F) Abscisic acid receptor PYR1: MPSELTPEERSELKNSIAEFHTYQLDPGSCSSLHAQRIHAPPELVWSIVRRFDKPQTYKHFIKSCSVEQNFEMRVGCTRDVIVISGLPANTSTERLDILDDERRVTGFSIIGGEHRLTNYKSVTTVHRFEKENRIWTVVLESYVVDMFEGNSEDDTRMFADTVVKLNLQKLATVAEAMARNSGDGSGSQVT
5 | x | G150V: PYR1 mutant (protein, UniProt O49686 1-191, looked up, variant G150V) Abscisic acid receptor PYR1: MPSELTPEERSELKNSIAEFHTYQLDPGSCSSLHAQRIHAPPELVWSIVRRFDKPQTYKHFIKSCSVEQNFEMRVGCTRDVIVISGLPANTSTERLDILDDERRVTGFSIIGGEHRLTNYKSVTTVHRFEKENRIWTVVLESYVVDMPEVNSEDDTRMFADTVVKLNLQKLATVAEAMARNSGDGSGSQVT
6 | x | P148C: PYR1 mutant (protein, UniProt O49686 1-191, looked up, variant P148C) Abscisic acid receptor PYR1: MPSELTPEERSELKNSIAEFHTYQLDPGSCSSLHAQRIHAPPELVWSIVRRFDKPQTYKHFIKSCSVEQNFEMRVGCTRDVIVISGLPANTSTERLDILDDERRVTGFSIIGGEHRLTNYKSVTTVHRFEKENRIWTVVLESYVVDMCEGNSEDDTRMFADTVVKLNLQKLATVAEAMARNSGDGSGSQVT
7 | x | P148W: PYR1 mutant (protein, UniProt O49686 1-191, looked up, variant P148W) Abscisic acid receptor PYR1: MPSELTPEERSELKNSIAEFHTYQLDPGSCSSLHAQRIHAPPELVWSIVRRFDKPQTYKHFIKSCSVEQNFEMRVGCTRDVIVISGLPANTSTERLDILDDERRVTGFSIIGGEHRLTNYKSVTTVHRFEKENRIWTVVLESYVVDMWEGNSEDDTRMFADTVVKLNLQKLATVAEAMARNSGDGSGSQVT
8 | x | N151L: PYR1 mutant (protein, UniProt O49686 1-191, looked up, variant N151L) Abscisic acid receptor PYR1: MPSELTPEERSELKNSIAEFHTYQLDPGSCSSLHAQRIHAPPELVWSIVRRFDKPQTYKHFIKSCSVEQNFEMRVGCTRDVIVISGLPANTSTERLDILDDERRVTGFSIIGGEHRLTNYKSVTTVHRFEKENRIWTVVLESYVVDMPEGLSEDDTRMFADTVVKLNLQKLATVAEAMARNSGDGSGSQVT
9 | x | P148K: PYR1 mutant (protein, UniProt O49686 1-191, looked up, variant P148K) Abscisic acid receptor PYR1: MPSELTPEERSELKNSIAEFHTYQLDPGSCSSLHAQRIHAPPELVWSIVRRFDKPQTYKHFIKSCSVEQNFEMRVGCTRDVIVISGLPANTSTERLDILDDERRVTGFSIIGGEHRLTNYKSVTTVHRFEKENRIWTVVLESYVVDMKEGNSEDDTRMFADTVVKLNLQKLATVAEAMARNSGDGSGSQVT
10 | x | P148T: PYR1 mutant (protein, UniProt O49686 1-191, looked up, variant P148T) Abscisic acid receptor PYR1: MPSELTPEERSELKNSIAEFHTYQLDPGSCSSLHAQRIHAPPELVWSIVRRFDKPQTYKHFIKSCSVEQNFEMRVGCTRDVIVISGLPANTSTERLDILDDERRVTGFSIIGGEHRLTNYKSVTTVHRFEKENRIWTVVLESYVVDMTEGNSEDDTRMFADTVVKLNLQKLATVAEAMARNSGDGSGSQVT
11 | x | P148V: PYR1 mutant (protein, UniProt O49686 1-191, looked up, variant P148V) Abscisic acid receptor PYR1: MPSELTPEERSELKNSIAEFHTYQLDPGSCSSLHAQRIHAPPELVWSIVRRFDKPQTYKHFIKSCSVEQNFEMRVGCTRDVIVISGLPANTSTERLDILDDERRVTGFSIIGGEHRLTNYKSVTTVHRFEKENRIWTVVLESYVVDMVEGNSEDDTRMFADTVVKLNLQKLATVAEAMARNSGDGSGSQVT
12 | x | N151M: PYR1 mutant (protein, UniProt O49686 1-191, looked up, variant N151M) Abscisic acid receptor PYR1: MPSELTPEERSELKNSIAEFHTYQLDPGSCSSLHAQRIHAPPELVWSIVRRFDKPQTYKHFIKSCSVEQNFEMRVGCTRDVIVISGLPANTSTERLDILDDERRVTGFSIIGGEHRLTNYKSVTTVHRFEKENRIWTVVLESYVVDMPEGMSEDDTRMFADTVVKLNLQKLATVAEAMARNSGDGSGSQVT
13 | x | P148D: PYR1 mutant (protein, UniProt O49686 1-191, looked up, variant P148D) Abscisic acid receptor PYR1: MPSELTPEERSELKNSIAEFHTYQLDPGSCSSLHAQRIHAPPELVWSIVRRFDKPQTYKHFIKSCSVEQNFEMRVGCTRDVIVISGLPANTSTERLDILDDERRVTGFSIIGGEHRLTNYKSVTTVHRFEKENRIWTVVLESYVVDMDEGNSEDDTRMFADTVVKLNLQKLATVAEAMARNSGDGSGSQVT
14 | x | N151P: PYR1 mutant (protein, UniProt O49686 1-191, looked up, variant N151P) Abscisic acid receptor PYR1: MPSELTPEERSELKNSIAEFHTYQLDPGSCSSLHAQRIHAPPELVWSIVRRFDKPQTYKHFIKSCSVEQNFEMRVGCTRDVIVISGLPANTSTERLDILDDERRVTGFSIIGGEHRLTNYKSVTTVHRFEKENRIWTVVLESYVVDMPEGPSEDDTRMFADTVVKLNLQKLATVAEAMARNSGDGSGSQVT
15 | x | P148Y: PYR1 mutant (protein, UniProt O49686 1-191, looked up, variant P148Y) Abscisic acid receptor PYR1: MPSELTPEERSELKNSIAEFHTYQLDPGSCSSLHAQRIHAPPELVWSIVRRFDKPQTYKHFIKSCSVEQNFEMRVGCTRDVIVISGLPANTSTERLDILDDERRVTGFSIIGGEHRLTNYKSVTTVHRFEKENRIWTVVLESYVVDMYEGNSEDDTRMFADTVVKLNLQKLATVAEAMARNSGDGSGSQVT
16 | x | N151Q: PYR1 mutant (protein, UniProt O49686 1-191, looked up, variant N151Q) Abscisic acid receptor PYR1: MPSELTPEERSELKNSIAEFHTYQLDPGSCSSLHAQRIHAPPELVWSIVRRFDKPQTYKHFIKSCSVEQNFEMRVGCTRDVIVISGLPANTSTERLDILDDERRVTGFSIIGGEHRLTNYKSVTTVHRFEKENRIWTVVLESYVVDMPEGQSEDDTRMFADTVVKLNLQKLATVAEAMARNSGDGSGSQVT
17 | x | P148G: PYR1 mutant (protein, UniProt O49686 1-191, looked up, variant P148G) Abscisic acid receptor PYR1: MPSELTPEERSELKNSIAEFHTYQLDPGSCSSLHAQRIHAPPELVWSIVRRFDKPQTYKHFIKSCSVEQNFEMRVGCTRDVIVISGLPANTSTERLDILDDERRVTGFSIIGGEHRLTNYKSVTTVHRFEKENRIWTVVLESYVVDMGEGNSEDDTRMFADTVVKLNLQKLATVAEAMARNSGDGSGSQVT
18 | x | G150I: PYR1 mutant (protein, UniProt O49686 1-191, looked up, variant G150I) Abscisic acid receptor PYR1: MPSELTPEERSELKNSIAEFHTYQLDPGSCSSLHAQRIHAPPELVWSIVRRFDKPQTYKHFIKSCSVEQNFEMRVGCTRDVIVISGLPANTSTERLDILDDERRVTGFSIIGGEHRLTNYKSVTTVHRFEKENRIWTVVLESYVVDMPEINSEDDTRMFADTVVKLNLQKLATVAEAMARNSGDGSGSQVT
19 | x | G150W: PYR1 mutant (protein, UniProt O49686 1-191, looked up, variant G150W) Abscisic acid receptor PYR1: MPSELTPEERSELKNSIAEFHTYQLDPGSCSSLHAQRIHAPPELVWSIVRRFDKPQTYKHFIKSCSVEQNFEMRVGCTRDVIVISGLPANTSTERLDILDDERRVTGFSIIGGEHRLTNYKSVTTVHRFEKENRIWTVVLESYVVDMPEWNSEDDTRMFADTVVKLNLQKLATVAEAMARNSGDGSGSQVT
20 | x | P148H: PYR1 mutant (protein, UniProt O49686 1-191, looked up, variant P148H) Abscisic acid receptor PYR1: MPSELTPEERSELKNSIAEFHTYQLDPGSCSSLHAQRIHAPPELVWSIVRRFDKPQTYKHFIKSCSVEQNFEMRVGCTRDVIVISGLPANTSTERLDILDDERRVTGFSIIGGEHRLTNYKSVTTVHRFEKENRIWTVVLESYVVDMHEGNSEDDTRMFADTVVKLNLQKLATVAEAMARNSGDGSGSQVT
21 | x | N151R: PYR1 mutant (protein, UniProt O49686 1-191, looked up, variant N151R) Abscisic acid receptor PYR1: MPSELTPEERSELKNSIAEFHTYQLDPGSCSSLHAQRIHAPPELVWSIVRRFDKPQTYKHFIKSCSVEQNFEMRVGCTRDVIVISGLPANTSTERLDILDDERRVTGFSIIGGEHRLTNYKSVTTVHRFEKENRIWTVVLESYVVDMPEGRSEDDTRMFADTVVKLNLQKLATVAEAMARNSGDGSGSQVT
